Laboratory results published in publication PMC11940548.

How the values were obtained:
[1] = biological target: MotA1 from Paenibacillus sp. TCA20 (Paenibacillus sp. TCA20); test: cryo-EM structure; co-expressed chimeric MotA1/MotB1-His6 complex, solubilised in LMNG, purified by Ni-affinity and SEC, reconstituted into peptidisc; 20 mM Tris-HCl pH 8.0, 100 mM NaCl; single particle analysis, three classes (3.3, 3.3 and 3.5 Å)
[2] = biological target: chimeric MotB1 (N-terminal transmembrane domain of Paenibacillus sp. TCA20 MotB1 joined to the C-terminal periplasmic domain of E. coli MotB) (Paenibacillus sp. TCA20 | E. coli) (UniProt P0AF06); test: as above

Row | Substance | stoichiometry N [1] | stoichiometry N [2]
1 | MotA1 from Paenibacillus sp. TCA20 (natural protein) | 5 | –
2 | chimeric MotB1 (N-terminal transmembrane domain of Paenibacillus sp. TCA20 MotB1 joined to the C-terminal periplasmic domain of E. coli MotB) (from UniProt P0AF06 104-302) | – | 2
